Positions count from the first letter of the chain named.
B1: RA122 (nucleic acid)
DNA: GCGCGTCCTGGATTCGCGGAAACGCGTACATCCAGCTGACGAGTCCCAAATAGGACGAGAATACCAGCATCGTCTTGATGCCCTTGGAAGTCTCGAAACGCGC
modifications: expressed or natural sequence
B2: RA115 (nucleic acid)
DNA: GCGCGTCCTGGATTCGCGGAAACGCGTACATCCAGCTGACGAGTCCCAAATAGGACGAGAATACCAGCATCGTCTTGATGCCCTTGGAAGTCTAAACGCGC
modifications: expressed or natural sequence
B3: RA011 (nucleic acid)
DNA: GCGCGTCCTGGATTCGCGGAAACGCGTACATCCAGCTGACGAGTCCCGGAATACCAGCATCGTCTTGATGCCCTTGGAAGTCCGCAAATAGGACGAAACGCGC
modifications: expressed or natural sequence
B4: RA114 (nucleic acid)
DNA: GCGCGTCCTGGATTCGCGGAAACGCGTACATCCAGCTGACGAGTCCCAAATAGGACGAGGAATACCAGCATCGTCTTGATGCCCTTGGAAGTCCAACGCGC
modifications: expressed or natural sequence
B5: RA108 (nucleic acid)
DNA: GCGCGTCCTGGATTCGCGGCCGGAATACCAGCATCGTCTTGATGCCCTTGGAAGTCCGGAAACGCGTACATCCAGCTGACGAGTCCCAAATAGGACGAAACGCGC
modifications: expressed or natural sequence
B6: RA117 (nucleic acid)
DNA: GCGCGTCCTGGATCGGAATACCAGCATCGTCTTGATGCCCTTGGAAGTCCGTCGCGGAAACGCGTACATCCAGCTGACGAGTCCCAAATAGGACGAAACGCGC
modifications: expressed or natural sequence
B7: RA113 (nucleic acid)
DNA: GCGCGTCCTGGATTCGCGGAAACGCGTACATCCAGCTGACGAGTCCCAAATAGGACGAAACGCGC
modifications: expressed or natural sequence
B8: RA123 (nucleic acid)
DNA: GCGCGTCCTGGATTCGCGGAAACGCGTCGGAATACCAGCATCGTCTTGATGCCCTTGGAAGTCCGACATCCAGCTGACGAGTCCCAAATAGGACGAAACGCGC
modifications: expressed or natural sequence
B9: RA106 (nucleic acid)
DNA: GCGCGTCCTGGATTCGCGGAAACGCGTACATCCAGCTGACCGGAATACCAGCATCGTCTTGATGCCCTTGGAAGTCCGGCGAGTCCCAAATAGGACGAAACGCGC
modifications: expressed or natural sequence
B10: RA109 (nucleic acid)
DNA: GCGCCGAGAATACCAGCATCGTCTTGATGCCCTTGGAAGTCTCGGTCCTGGATTCGCGGAAACGCGTACATCCAGCTGACGAGTCCCAAATAGGACGAAACGCGC
modifications: expressed or natural sequence
B11: RA112 (nucleic acid)
DNA: GCGCGTCCTGGATTCGCGGAAACGCGTACATCCAGGGAATACCAGCATCGTCTTGATGCCCTTGGAAGTCCCTGACGAGTCCCAAATAGGACAAAACGCGC
modifications: expressed or natural sequence
B12: RA119 (nucleic acid)
DNA: B11 DNA with G36A, C71T, A93G
modifications: expressed or natural sequence
B13: RA107 (nucleic acid)
DNA: GCGCGTCCTGGATTCGCGGAAACGCGTACATCCCGGAATACCAGCATCGTCTTGATGCCCTTGGAAGTCCGAGCTGACGAGTCCCAAATAGGACGAAACGCGC
modifications: expressed or natural sequence
B14: RA118 (nucleic acid)
DNA: GCGCGTCCTGGATTCGCGGAAACGCGTACATCCAGCTGACGAGTCCCAAATAGGACGAGAGAATACCAGCATCGTCTTGATGCCCTTGGAAGTCTCAACGCGC
modifications: expressed or natural sequence
B15: RA120 (nucleic acid)
DNA: GCGCGTCCCCGGAATACCAGCATCGTCTTGATGCCCTTGGAAGTCCGGTGGATTCGCGGAAACGCGTACATCCAGCTGACGAGTCCCAAATAGGACGAAACGCGC
modifications: expressed or natural sequence
B16: RA121 (nucleic acid)
DNA: GCGCGTCCTGGATTCGAGAATACCAGCATCGTCTTGATGCCCTTGGAAGTCTCGCGGAAACGCGTACATCCAGCTGACGAGTCCCAAATAGGACGAAACGCGC
modifications: expressed or natural sequence
B17: RA010 (nucleic acid)
DNA: GCGCGTCCTGGACGAGAATACCAGCATCGTCTTGATGCCCTTGGAAGTCTCGTTCGCGGAAACGCGTACATCCAGCTGACGAGTCCCAAATAGGACGAAACGCGC
modifications: expressed or natural sequence
B18: RA111 (nucleic acid)
DNA: GCGCGTCCTAGTGATACCAGCATCGTCTTGATGCCCTTGGCAGCACTGGATTCGCGGAAACGCGTACATCCAGCTGACGAGTCCCAAATAGGACGAAACGCGC
modifications: expressed or natural sequence
B19: RA110 (nucleic acid)
DNA: GCGCGTCCTGGGGAATACCAGCATCGTCTTGATGCCCTTGGAAGTCCATTCGCGGAAACGCGTACATCCAGCTGACGAGTCCCAAATAGGACGAAACGCGC
modifications: expressed or natural sequence
B20: RA116 (nucleic acid)
DNA: GCGCGTCCTGGATTCGCGGAAACGCGTACATCCAGCTGACGAGTCCCAAATAGGGAGAATACCAGCATCGTCTTGATGCCCTTGGAAGTCTCACGAAACGCGC
modifications: expressed or natural sequence

Tested on: Renilla luciferase RNA
Test: Barcoded aptazyme variant library screen: un-cleaved Renilla luciferase RNA by barcode read counts, HEK293-T cells
Format: cell-based
Details: un-cleaved Renilla luciferase RNA, HEK293-T cells cultured with 1 mM theophylline (ON) over without theophylline (OFF); barcode read counts, triplicate
Method in brief: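 Aptazyme variants (seven theophylline aptamers inserted after each T3H48 ribozyme nucleotide, 9-nt barcoded) cloned into the 3′ UTR of Renilla luciferase in psiCHECK-2; cells cultured ± theophylline, in triplicate. RNA and DNA barcodes amplified and sequenced; normalized read counts gave un-cleaved RNA fraction and ON/OFF fold-change.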

Molecule	Fold change in RNA expression between the ON state and the OFF state [fold]
B1	1.5
B2	1.5
B3	3.6
B4	1.5
B5	1.6
B6	1.5
B7	1.5
B8	1.5
B9	1.6
B10	1.6
B11	1.5
B12	1.5
B13	1.6
B14	1.5
B15	1.5
B16	1.5
B17	3.6
B18	1.6
B19	1.6
B20	1.5
